We go through 32 variants from the RNAGym collection of RNA variant scans (doi:10.7554/elife.80360).

First the molecules themselves.
B1: HDV Ribozyme (parent)
chain: GGCCGGCAUGGUCCCAGCCUCCUCGCUGGCGCCGGCUGGGCAACAUUCCGAGGGGACCGUCCCCUCGGUAAUGGCGAAUGGGACCCA

The data set covers variants of B1. The data set can be described thus: self-cleavage, relative activity (ratio to wild type); higher = more cleavage; co-transcriptional.
As to GGCCGGCAUGGUCCCAGCCUCCUCGCUGGCGCCGGCUGGGCAACAUUCCGAGGGGACCGUCCCCUCUGUAAUGGCGAAUGGCACCCA, the self-cleavage amounted to 0.182. For the variant GGCCGGCAUGGUCCCAGCCUCCUCGCUGGCGCCGGCUGGGCAACAUUCCGAGGGGACCGUCCCCUCUGUAAUGGCGAAUGGAACCCA, the self-cleavage turned out to be 0.28. Under GGCCGGCAUGGUCCCAGCCUCCUCGCUGGCGCCGGCUGGGCAACAUUCCGAGGGGACCGUCCCCUCUGUAAUGGCGAUUGGGACCCA stands 0.253. Under GGCCGGCAUGGUCCCAGCCUCCUCGCUGGCGCCGGCUGGGCAACAUUCCGAGGGGACCGUCCCCUCUGUAAUGGCGAAUGGGACCCG stands 0.91. With GGCCGGCAUGGUCCCAGCCUCCUCGCUGGCGCCGGCUGGGCAACAUUCCGAGGGGACCGUCCCCUCUGUAAUGGCGAAUGGGACCCU, the self-cleavage came to 0.898. Under GGCCGGCAUGGUCCCAGCCUCCUCGCUGGCGCCGGCUGGGCAACAUUCCGAGGGGACCGUCCCCUCGAUAAUGGAGAAUGGGACCCA stands 0.164; under GGCCGGCAUGGUCCCAGCCUCCUCGCUGGCGCCGGCUGGGCAACAUUCCGAGGGGACCGUCCCCUCGUUAAUGGCGAAUGGGCCCCA, 0.538.

GGCCGGCAUGGUCCCAGCCUCCUCGCUGGCGCCGGCUGGGCAACAUUCCGAGGGGACCGUCCCCUCUGUAAUGGCGCAUGGGACCCA: the self-cleavage worked out at 0.373. Under GGCCGGCAUGGUCCCAGCCUCCUCGCUGGCGCCGGCUGGGCAACAUUCCGAGGGGACCGUCCCCUCGAUAAUGACGAAUGGGACCCA stands 0.51; under GGCCGGCAUGGUCCCAGCCUCCUCGCUGGCGCCGGCUGGGCAACAUUCCGAGGGGACCGUCCCCUCGCUAAAGGCGAAUGGGACCCA, 0.499; under GGCCGGCAUGGUCCCAGCCUCCUCGCUGGCGCCGGCUGGGCAACAUUCCGAGGGGACCGUCCCCUCGCUAACGGCGAAUGGGACCCA, 0.38. The same measure for GGCCGGCAUGGUCCCAGCCUCCUCGCUGGCGCCGGCUGGGCAACAUUCCGAGGGGACCGUCCCCUCGAUAAUGGCGAAUGGGCCCCA: 0.519. Under GGCCGGCAUGGUCCCAGCCUCCUCGCUGGCGCCGGCUGGGCAACAUUCCGAGGGGACCGUCCCCUCGAUAAUGGCGAAUGGGGCCCA stands 0.522; under GGCCGGCAUGGUCCCAGCCUCCUCGCUGGCGCCGGCUGGGCAACAUUCCGAGGGGACCGUCCCCUCGUUAAUGGCGAAUGAGACCCA, 0.492. For GGCCGGCAUGGUCCCAGCCUCCUCGCUGGCGCCGGCUGGGCAACAUUCCGAGGGGACCGUCCCCUCGUUAAUGGCCAAUGGGACCCA, the self-cleavage worked out at 1.11.

In the case of GGCCGGCAUGGUCCCAGCCUCCUCGCUGGCGCCGGCUGGGCAACAUUCCGAGGGGACCGUCCCCUCGCUAGUGGCGAAUGGGACCCA, the self-cleavage is 0.831. Under GGCCGGCAUGGUCCCAGCCUCCUCGCUGGCGCCGGCUGGGCAACAUUCCGAGGGGACCGUCCCCUCGAUAAUGGCGAAAGGGACCCA stands 0.554; under GGCCGGCAUGGUCCCAGCCUCCUCGCUGGCGCCGGCUGGGCAACAUUCCGAGGGGACCGUCCCCUCCGUAAUUGCGAAUGGGACCCA, 0.322.

Regarding GGCCGGCAUGGUCCCAGCCUCCUCGCUGGCGCCGGCUGGGCAACAUUCCGAGGGGACCGUCCCCUCGAUAAUGGCGAAUGGGACGCA, the self-cleavage was found to be 0.774. GGCCGGCAUGGUCCCAGCCUCCUCGCUGGCGCCGGCUGGGCAACAUUCCGAGGGGACCGUCCCCUCUGUAUUGGCGAAUGGGACCCA: the self-cleavage was determined as 0.992.

Take GGCCGGCAUGGUCCCAGCCUCCUCGCUGGCGCCGGCUGGGCAACAUUCCGAGGGGACCGUCCCCUCUGAAAUGGCGAAUGGGACCCA: the self-cleavage amounted to 0.801.

As for GGCCGGCAUGGUCCCAGCCUCCUCGCUGGCGCCGGCUGGGCAACAUUCCGAGGGGACCGUCCCCUCGUUAAUUGCGAAUGGGACCCA, the self-cleavage turned out to be 0.0923. Under GGCCGGCAUGGUCCCAGCCUCCUCGCUGGCGCCGGCUGGGCAACAUUCCGAGGGGACCGUCCCCUCGUUAAUCGCGAAUGGGACCCA stands 0.205; under GGCCGGCAUGGUCCCAGCCUCCUCGCUGGCGCCGGCUGGGCAACAUUCCGAGGGGACCGUCCCCUCGCUAAUGGCGAGUGGGACCCA, 0.426. Under GGCCGGCAUGGUCCCAGCCUCCUCGCUGGCGCCGGCUGGGCAACAUUCCGAGGGGACCGUCCCCUCGCUAAUGGCGAAUGGGACCCU stands 0.799; under GGCCGGCAUGGUCCCAGCCUCCUCGCUGGCGCCGGCUGGGCAACAUUCCGAGGGGACCGUCCCCUCUGUAAUGGCGAAUGAGACCCA, 0.254; under GGCCGGCAUGGUCCCAGCCUCCUCGCUGGCGCCGGCUGGGCAACAUUCCGAGGGGACCGUCCCCUCUGUAAUGGCGAAUUGGACCCA, 0.25. Under GGCCGGCAUGGUCCCAGCCUCCUCGCUGGCGCCGGCUGGGCAACAUUCCGAGGGGACCGUCCCCUCUGUAAUGCCGAAUGGGACCCA stands 0.151; under GGCCGGCAUGGUCCCAGCCUCCUCGCUGGCGCCGGCUGGGCAACAUUCCGAGGGGACCGUCCCCUCUGUAAUGACGAAUGGGACCCA, 0.379.

On to GGCCGGCAUGGUCCCAGCCUCCUCGCUGGCGCCGGCUGGGCAACAUUCCGAGGGGACCGUCCCCUCGCUAAUGGCGAAUGGGACACA, for which the self-cleavage stood at 1.17. The same measure for GGCCGGCAUGGUCCCAGCCUCCUCGCUGGCGCCGGCUGGGCAACAUUCCGAGGGGACCGUCCCCUCGCUAAUGGCGAAUGAGACCCA: 0.526.

On to GGCCGGCAUGGUCCCAGCCUCCUCGCUGGCGCCGGCUGGGCAACAUUCCGAGGGGACCGUCCCCUCUGUAAAGGCGAAUGGGACCCA, for which the self-cleavage is 0.665.
